First the molecules themselves.
B1: HDV Ribozyme (parent)
chain: GGCCGGCAUGGUCCCAGCCUCCUCGCUGGCGCCGGCUGGGCAACAUUCCGAGGGGACCGUCCCCUCGGUAAUGGCGAAUGGGACCCA
B2: CPEB3 Ribozyme (parent)
chain: GGGGGCCACAGCAGAAGCGUUCACGUCGCGGCCCCUGUCAGAUUCUGGUGAAUCUGCGAAUUCUGCUGU

The values that follow come from the RNAGym collection of RNA variant scans (doi:10.7554/elife.80360).

The variants in one series derive from B1. The series can be described thus: self-cleavage, relative activity (ratio to wild type); higher = more cleavage; co-transcriptional.
In the case of C13G A43G, the self-cleavage amounted to 0.133.
The same measure, in the same setting: the same measure for G6C U12C: 0.123; for G17A G80A: 0.205; for C19U U72C: 0.0354.
For the variant C4G A16G, the self-cleavage is 0.453.
On to U20C G25U, for which the self-cleavage worked out at 0.0415.
U12G C84A: the self-cleavage came to 0.665.
On the same count and under the same terms, the figure for G17A C22G is 0.0573.
Take A43U U72A: the self-cleavage came to 0.194.
The same measure, in the same setting: the same measure for G31A A70U: 0.101.
A71U C86G: the self-cleavage came to 0.752.
For G5U C13U, the self-cleavage is 0.115.
The same measure, in the same setting: the same measure for G5C U65C: 0.222.
Take C14G C44G: the self-cleavage was determined as 0.196.
On the same count and under the same terms, the figure for C48U C62U is 1.15.
Consider C15A C18A, for which the self-cleavage came to 0.115.
Still for that read-out and setting: the same measure for U9A U79G: 0.529; for C30U C75A: 0.0959; for G1U G11U: 0.439.
With C63U G81C, the self-cleavage was found to be 0.151.
In the case of G11C G50C, the self-cleavage was 0.365.
Same read-out and setting: the figure for C22G C30G is 0.0437.
Turning to A71C C85G, the self-cleavage is 0.554.
For U9A G73U, the self-cleavage amounted to 0.244.
On the same count and under the same terms, the figure for G1U G52U is 0.372.
Regarding G28U U37G, the self-cleavage was 0.18.
On to C61A G76C, for which the self-cleavage stood at 1.08.
In the case of C41G A43G, the self-cleavage is 0.262.
Same read-out and setting: the figure for G6A G74A is 0.0923; for U20C G73C it is 0.135.
As for G39C C64U, the self-cleavage amounted to 0.224.
G11A G28C: the self-cleavage stood at 0.0936.
As for C24G G31U, the self-cleavage was found to be 0.0604.
Same read-out and setting: the figure for C41U is 0.979; for U65A G74A it is 0.489.
Consider C66U G82A, for which the self-cleavage came out at 0.649.
As for G59U C62U, the self-cleavage was 1.07.
Turning to C36G G82C, the self-cleavage worked out at 0.141.
Still for that read-out and setting: the figure for U9C A78G is 0.914; for C3A C62G it is 0.0773.
In the case of C58A C62G, the self-cleavage was 1.19.
Take C75U A78G: the self-cleavage came out at 0.214.
Turning to A56U G68A, the self-cleavage came out at 0.819.
Turning to C30U C32G, the self-cleavage was 0.0652.
Turning to C48A C85G, the self-cleavage is 0.867.
Regarding A16U C84U, the self-cleavage came to 0.678.
Turning to C48G C63A, the self-cleavage worked out at 0.435.
For the variant A45C C85A, the self-cleavage is 0.437.
On the same count and under the same terms, the same measure for A8U G73U: 0.199; for C58A C84G: 0.764.

Variants of B2 are the subject of another series. The description is as above.
On to G1C A10C, for which the self-cleavage turned out to be 0.23.
Take G1C A10U: the self-cleavage was 0.209.
Take G1A A23G: the self-cleavage came out at 0.139.
On the same count and under the same terms, the figure for G1A A23C is 0.0884.
Regarding G1A G3U, the self-cleavage turned out to be 0.0455.
On the same count and under the same terms, the same measure for G1A G3A: 0.107; for G1A G14U: 0.0964.
With G1A G30U, the self-cleavage worked out at 0.0869.
The same measure, in the same setting: the same measure for G1C C32G: 0.148; for G1A U61A: 0.0967; for G1A U61G: 0.15.
Consider G1A G37A, for which the self-cleavage is 0.0641.
With G1A U62G, the self-cleavage was 0.0371.
Same read-out and setting: the same measure for G1A U62C: 0.033.
As to G1A C29A, the self-cleavage worked out at 0.061.
As to G1A A40G, the self-cleavage was found to be 0.0657.
Consider G1A G4U, for which the self-cleavage was 0.0804.
In the case of G1A A10U, the self-cleavage was 0.0492.
Turning to G1A A10G, the self-cleavage was 0.115.
For the variant G1C G41U, the self-cleavage was found to be 0.193.
The same measure, in the same setting: the figure for G1A G31U is 0.0837.
Take G1A G28A: the self-cleavage amounted to 0.0534.
With G1A C7U, the self-cleavage was found to be 0.0863.
As to G1A C7A, the self-cleavage worked out at 0.155.
As to G1A U49C, the self-cleavage is 0.0571.
Regarding G1A C45A, the self-cleavage came to 0.0944.
Same read-out and setting: the same measure for G1A C22A: 0.0619; for G1A C22G: 0.0704.
G1A U21C: the self-cleavage was 0.0967.
As for G1C A15U, the self-cleavage turned out to be 0.229.
With G1A A42C, the self-cleavage is 0.106.
Consider G1A A42U, for which the self-cleavage is 0.105.
The same measure, in the same setting: the same measure for G1A U67G: 0.0812.
Turning to G1A U67A, the self-cleavage stood at 0.121.
The same measure, in the same setting: the same measure for G1A G50C: 0.115; for G1A C12U: 0.0887; for G1C G65C: 0.174.
Still for that read-out and setting: the figure for G1C G65A is 0.134; for G1C C22U it is 0.0706; for G1C A8G it is 0.205.
The same measure, in the same setting: the same measure for G1A C54U: 0.0835; for G1A C35G: 0.053.
Regarding G1C C63G, the self-cleavage came to 0.201.
Same read-out and setting: the figure for G1A G41A is 0.0513.
Still for that read-out and setting: the figure for G1C C29A is 0.168; for G1C C18G it is 0.0551; for G1C C18A it is 0.035.
As to G1C C18U, the self-cleavage was 0.167.
Turning to G1C C66G, the self-cleavage amounted to 0.248.
Turning to G1A A60U, the self-cleavage worked out at 0.107.
On the same count and under the same terms, the figure for G1A A60G is 0.0623.
Turning to G1A U44G, the self-cleavage was found to be 0.0722.
As for G1A U64C, the self-cleavage was 0.0762.
Turning to G1C U20A, the self-cleavage stood at 0.0802.
In the case of G1C A42U, the self-cleavage is 0.2.
Take G1C A51G: the self-cleavage came out at 0.18.
As to G1A C66U, the self-cleavage turned out to be 0.0966.
With G1A C66A, the self-cleavage was found to be 0.0751.
On to G1C C57U, for which the self-cleavage is 0.07.
With G1C G2U, the self-cleavage amounted to 0.142.
In the case of G1C G2C, the self-cleavage amounted to 0.67.
With G1C G28A, the self-cleavage came to 0.102.
For G1C G48A, the self-cleavage worked out at 0.204.
For the variant G1C G48C, the self-cleavage came out at 0.215.
G1C G37A: the self-cleavage came out at 0.157.
With G1A G17C, the self-cleavage came out at 0.0672.
As to G1C G19C, the self-cleavage worked out at 0.126.
As for G1C G19U, the self-cleavage is 0.166.
G1C C7U: the self-cleavage came to 0.172.
Turning to G1A G2A, the self-cleavage came out at 0.302.
On to G1A G2U, for which the self-cleavage came out at 0.332.
For the variant G1A G2C, the self-cleavage worked out at 0.265.
Consider G1A G19A, for which the self-cleavage was determined as 0.0657.
Take G1A G19C: the self-cleavage worked out at 0.0333.
With G1A G19U, the self-cleavage came to 0.0319.
As for G1A A8C, the self-cleavage was 0.102.
Consider G1A A8G, for which the self-cleavage is 0.0246.
In the case of G1A A51G, the self-cleavage was 0.0779.
The same measure, in the same setting: the same measure for G1A A51C: 0.114; for G1C A60U: 0.179; for G1A A16U: 0.0347.
In the case of G1A A16C, the self-cleavage was 0.028.
Regarding G1C C24U, the self-cleavage is 0.203.
Turning to G1C C24G, the self-cleavage was determined as 0.118.
Same read-out and setting: the figure for G1C G14C is 0.152; for G1A G58U it is 0.0885; for G1A G25A it is 0.0488.
Still for that read-out and setting: the same measure for G1A G25U: 0.076; for G1C C54A: 0.272; for G1C C54U: 0.237.
On the same count and under the same terms, the figure for G1A U53A is 0.0419.
Regarding G1A U53G, the self-cleavage came to 0.0671.
Regarding G1A U53C, the self-cleavage is 0.0532.
In the case of G1C A40U, the self-cleavage came to 0.195.
For G1C C9A, the self-cleavage is 0.251.
Turning to G1C C39A, the self-cleavage came to 0.174.
In the case of G1A U55G, the self-cleavage came to 0.0876.
As to G1A C33A, the self-cleavage is 0.0757.
Turning to G1C A16C, the self-cleavage came to 0.161.
G1C G4U: the self-cleavage was 0.205.
On the same count and under the same terms, the figure for G1C G3C is 0.0906.
Take G1C G50A: the self-cleavage was found to be 0.224.
In the case of G1C G50C, the self-cleavage came out at 0.145.
As for G1A C27G, the self-cleavage is 0.0668.
Take G1A U43A: the self-cleavage was determined as 0.0552.
As for G1A U43C, the self-cleavage stood at 0.0436.
Consider G1A U43G, for which the self-cleavage came to 0.0723.
The same measure, in the same setting: the same measure for G1A U38A: 0.0918; for G1A U38G: 0.0274; for G1A G11C: 0.0395.
The same measure, in the same setting: the same measure for G1A C39G: 0.0386; for G1A C39A: 0.0683; for G1C G30U: 0.162.
Take G1C G56U: the self-cleavage is 0.224.
In the case of G1A G48C, the self-cleavage is 0.142.
Consider G1C G5C, for which the self-cleavage turned out to be 0.15.
Take G1C G5A: the self-cleavage was 0.272.
